Measurements from the supplement of paper PMC9112550, “Optimization of the antimicrobial peptide Bac7 by deep mutational scanning” (BMC Biology, 2022).

The sequences below were run on Escherichia coli TOP10 (assay: shrunken log2 fold change of peptide-encoding DNA abundance (4.5 h post-induction vs induction); higher = less antimicrobial activity (less host growth inhibition)). Settings: time post-induction: 4.5 h; library: site-saturation at positions 5, 18, 19, 20.
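Further: peptides expressed intracellularly from a pBAD plasmid library in pooled LB shake-flask culture, induced with 0.3% L-arabinose, DNA abundance read by NGS, three biological replicates, DESeq2 with apeglm shrinkage.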

| Sequence | shrunken log2 fold change |
| --- | --- |
| RRIRWRPPRLPRPRPRPDIAPRP | 0.0944 |
| RRIRMRPPRLPRPRPRPTIDPRP | 0.0912 |
| RRIRQRPPRLPRPRPRPQNTPRP | -0.666 |
| RRIRRRPPRLPRPRPRPFVYPRP | -0.0209 |
| RRIRIRPPRLPRPRPRPYSYPRP | -0.0485 |
| RRIRWRPPRLPRPRPRPDQSPRP | 0.0237 |
| RRIRIRPPRLPRPRPRPQAAPRP | -0.115 |
| RRIRARPPRLPRPRPRPPAKPRP | 1.12 |
| RRIRCRPPRLPRPRPRPRMRPRP | 0.542 |
| RRIRDRPPRLPRPRPRPHMYPRP | -0.102 |
| RRIRQRPPRLPRPRPRPNEAPRP | -0.0868 |
| RRIRTRPPRLPRPRPRPPSVPRP | 0.352 |
| RRIRCRPPRLPRPRPRPYHNPRP | -1.12 |
| RRIRIRPPRLPRPRPRPTVKPRP | -0.468 |
| RRIRLRPPRLPRPRPRPSANPRP | -0.0303 |
| RRIRFRPPRLPRPRPRPSDKPRP | -0.355 |
| RRIRYRPPRLPRPRPRPSFFPRP | -0.665 |
| RRIRARPPRLPRPRPRPEAVPRP | 1.59 |
| RRIRRRPPRLPRPRPRPRNCPRP | -0.0356 |
| RRIRQRPPRLPRPRPRPTVIPRP | -0.0817 |
| RRIRWRPPRLPRPRPRPMKMPRP | -0.0851 |
| RRIRCRPPRLPRPRPRPMEDPRP | -0.0146 |
| RRIRQRPPRLPRPRPRPCVLPRP | -0.298 |
| RRIRVRPPRLPRPRPRPLGMPRP | -0.481 |
| RRIRMRPPRLPRPRPRPKNYPRP | 0.0737 |

| Sequence | shrunken log2 fold change |
| --- | --- |
| RRIRCRPPRLPRPRPRPCYPPRP | -0.743 |
| RRIRLRPPRLPRPRPRPGNKPRP | -0.46 |
| RRIRIRPPRLPRPRPRPENEPRP | -0.428 |
| RRIRSRPPRLPRPRPRPNFFPRP | 0.179 |
| RRIRERPPRLPRPRPRPDHRPRP | -0.00204 |
| RRIRMRPPRLPRPRPRPHCSPRP | 0.183 |
| RRIRRRPPRLPRPRPRPQQDPRP | 0.0793 |
| RRIRRRPPRLPRPRPRPNTEPRP | 0.119 |
| RRIRDRPPRLPRPRPRPICSPRP | 0.0206 |
| RRIRDRPPRLPRPRPRPYTWPRP | 0.00489 |
| RRIRCRPPRLPRPRPRPCSLPRP | -0.477 |
| RRIRLRPPRLPRPRPRPQCMPRP | 0.0865 |
| RRIRRRPPRLPRPRPRPPTLPRP | 0.739 |
| RRIRNRPPRLPRPRPRPPTQPRP | 0.267 |
| RRIRCRPPRLPRPRPRPPHVPRP | 0.385 |
| RRIRDRPPRLPRPRPRPKHWPRP | 0.723 |
| RRIRIRPPRLPRPRPRPLLAPRP | 0.185 |
| RRIRMRPPRLPRPRPRPMNRPRP | -0.24 |
| RRIRSRPPRLPRPRPRPHFWPRP | 0.0758 |
| RRIRSRPPRLPRPRPRPSRFPRP | -0.0392 |
| RRIRNRPPRLPRPRPRPFHLPRP | -0.147 |
| RRIRKRPPRLPRPRPRPVHPPRP | 0.189 |
| RRIRSRPPRLPRPRPRPDEPPRP | 0.0784 |
| RRIRARPPRLPRPRPRPIMIPRP | -0.261 |
| RRIRIRPPRLPRPRPRPQDCPRP | 0.00138 |

| Sequence | shrunken log2 fold change |
| --- | --- |
| RRIRERPPRLPRPRPRPRALPRP | 0.0317 |
| RRIRIRPPRLPRPRPRPWTRPRP | -0.187 |
| RRIRPRPPRLPRPRPRPRPHPRP | 0.499 |
| RRIRFRPPRLPRPRPRPENKPRP | -0.422 |
| RRIRGRPPRLPRPRPRPISDPRP | 0.385 |
| RRIRIRPPRLPRPRPRPNNAPRP | -0.444 |
| RRIRGRPPRLPRPRPRPDKAPRP | -0.00124 |
| RRIRHRPPRLPRPRPRPGGKPRP | -0.0185 |
| RRIRVRPPRLPRPRPRPETYPRP | -0.316 |
| RRIRKRPPRLPRPRPRPFYAPRP | -0.0279 |
| RRIRQRPPRLPRPRPRPYYHPRP | -0.413 |
| RRIRDRPPRLPRPRPRPSPTPRP | -0.0251 |
| RRIRTRPPRLPRPRPRPFHIPRP | 0.0392 |
| RRIRDRPPRLPRPRPRPYKPPRP | -0.0448 |
| RRIRSRPPRLPRPRPRPTTLPRP | -0.0324 |
| RRIRKRPPRLPRPRPRPVHGPRP | 0.0412 |
| RRIRPRPPRLPRPRPRPGVAPRP | 0.27 |
| RRIRIRPPRLPRPRPRPRLFPRP | 0.0705 |
| RRIRKRPPRLPRPRPRPICVPRP | 0.0188 |
| RRIRQRPPRLPRPRPRPDPIPRP | -0.0263 |
| RRIRMRPPRLPRPRPRPAHCPRP | 0.352 |
| RRIRLRPPRLPRPRPRPKGNPRP | -0.0951 |
| RRIRNRPPRLPRPRPRPLYGPRP | -0.171 |
| RRIRGRPPRLPRPRPRPCCLPRP | 0.429 |
| RRIRERPPRLPRPRPRPNWAPRP | 0.0312 |

| Sequence | shrunken log2 fold change |
| --- | --- |
| RRIRWRPPRLPRPRPRPWHNPRP | -0.203 |
| RRIRIRPPRLPRPRPRPHPPPRP | -0.0108 |
| RRIRIRPPRLPRPRPRPGCWPRP | 0.312 |
| RRIRERPPRLPRPRPRPQINPRP | -0.586 |
| RRIRPRPPRLPRPRPRPCDWPRP | 0.0592 |
| RRIRSRPPRLPRPRPRPDTWPRP | -0.0193 |
| RRIRKRPPRLPRPRPRPRPDPRP | 0.446 |
| RRIRERPPRLPRPRPRPRMPPRP | -0.0437 |
| RRIRNRPPRLPRPRPRPCWHPRP | -0.0656 |
| RRIRDRPPRLPRPRPRPKCWPRP | -0.00042 |
| RRIRYRPPRLPRPRPRPTWSPRP | -0.58 |
| RRIRFRPPRLPRPRPRPACYPRP | -0.066 |
| RRIRKRPPRLPRPRPRPRVAPRP | 1.11 |
| RRIRARPPRLPRPRPRPGPMPRP | 0.676 |
| RRIRPRPPRLPRPRPRPAPSPRP | 0.51 |
| RRIRQRPPRLPRPRPRPPHVPRP | 0.15 |
| RRIRPRPPRLPRPRPRPHWGPRP | 0.0167 |
| RRIRERPPRLPRPRPRPCPEPRP | -0.324 |
| RRIRHRPPRLPRPRPRPGSWPRP | 0.112 |
| RRIRMRPPRLPRPRPRPQQWPRP | 0.153 |
| RRIRMRPPRLPRPRPRPDGNPRP | 0.0626 |
| RRIRWRPPRLPRPRPRPEFVPRP | 0.423 |
| RRIRARPPRLPRPRPRPSYAPRP | -0.165 |
| RRIRTRPPRLPRPRPRPIWRPRP | -0.111 |
| RRIRERPPRLPRPRPRPYHPPRP | -0.248 |

| Sequence | shrunken log2 fold change |
| --- | --- |
| RRIRQRPPRLPRPRPRPNYKPRP | -0.545 |
| RRIRTRPPRLPRPRPRPIKCPRP | -0.234 |
| RRIRFRPPRLPRPRPRPSWAPRP | -0.308 |
| RRIRARPPRLPRPRPRPWASPRP | -0.145 |
| RRIRVRPPRLPRPRPRPMHRPRP | -0.0728 |
| RRIRGRPPRLPRPRPRPTVIPRP | 0.107 |
| RRIRYRPPRLPRPRPRPKNPPRP | -0.315 |
| RRIRRRPPRLPRPRPRPKTWPRP | -0.0361 |
| RRIRMRPPRLPRPRPRPLVSPRP | 0.162 |
| RRIRHRPPRLPRPRPRPARDPRP | 0.147 |
| RRIRERPPRLPRPRPRPLHFPRP | -0.141 |
| RRIRNRPPRLPRPRPRPNHQPRP | -0.241 |
| RRIRWRPPRLPRPRPRPVRFPRP | 0.0694 |
| RRIRARPPRLPRPRPRPGCVPRP | 0.851 |
| RRIRPRPPRLPRPRPRPTPVPRP | 0.379 |
| RRIRKRPPRLPRPRPRPYKPPRP | -0.0134 |
| RRIRVRPPRLPRPRPRPTPGPRP | 0.258 |
| RRIRCRPPRLPRPRPRPHAYPRP | -0.759 |
| RRIRARPPRLPRPRPRPCPQPRP | -0.00027 |
| RRIRNRPPRLPRPRPRPPQDPRP | 0.0281 |
| RRIRERPPRLPRPRPRPELSPRP | 0.314 |
| RRIRYRPPRLPRPRPRPVKDPRP | -0.0122 |
| RRIRGRPPRLPRPRPRPGNKPRP | -0.216 |
| RRIRYRPPRLPRPRPRPTPAPRP | 0.238 |
| RRIRRRPPRLPRPRPRPQCTPRP | -0.122 |
